In experiment [1] the target is T1, C-terminal GFP2-tagged β2-adrenergic receptor (β2-AR/GFP2) (human, UniProt P07550 1-413).
T1 construct: human β2-adrenergic receptor; not shown: GFP2, C-terminal, kept
The experiment can be described thus: MST; lysate of HEK-293 cells with β2-AR/GFP2 kept constant as fluorescent target, P3 titrated in 1:1 dilutions, in the presence of 10 µM isoproterenol; MST buffer with 0.05% Tween 20, 25 °C; EC50 from bound fraction. The following applies: one partner purified.

In experiment [2] the target is T1, C-terminal GFP2-tagged β2-adrenergic …. As to the kind of experiment: MST; lysate of HEK-293 cells with β2-AR/GFP2 kept constant as fluorescent target, P3 titrated in 1:1 dilutions, no agonist; MST buffer with 0.05% Tween 20, 25 °C; EC50 from bound fraction. The following applies: one partner purified.

The source of these data is publication PMC6851183, “Computational design and characterization of nanobody-derived peptides that stabilize the active conformation of the β2-adrenergic receptor (β2-AR)” (Scientific Reports, 2019).

For orientation: EC50 means the concentration that produces a half-maximal response.

B1: P3, nanobody-derived peptide (NDP) of Nb71 (peptide)
peptide: EDTAVYYCNANWDLLSD
notes: 17 aa stretch of the nanobody Nb71 (amino acid residues 88-104, includes CDR3), picked by computational peptide scanning; numbers count on Nb71; source: synthetic peptide, custom-synthesized at Biomatik Corporation
Consider B1, for which the EC50 was found to be 3.57 ± 0.81 µM in experiment [1] and 58.2 ± 13.6 µM in experiment [2].
